Measurements reported in paper PMC7091491.

Assays:
[1] = molecular target: G12-insertion ClpX^ΔN single-chain pseudohexamer (E. coli) (UniProt P0A6H1)
[2] = molecular target: linker-deletion ClpX^ΔN single-chain pseudohexamer (E. coli) (UniProt P0A6H1)
[3] = molecular target: wild-type single-chain ClpX^ΔN pseudohexamer (E. coli) (UniProt P0A6H1)

KM of Arc-st11-ssrA degradation (0.1 μM ClpX, 0.3 μM ClpP) [1]: 4.1 µM
KM of Arc-st11-ssrA degradation (0.1 μM ClpX, 0.3 μM ClpP); approximate [2]: 20 µM
KM of Arc-st11-ssrA degradation (0.1 μM ClpX, 0.3 μM ClpP) [3]: 2.5 µM
Substance: Arc-st11-ssrA
